According to patent US20050208046A1:

Target: FLAG-TWEAKR (human)

- BrdU incorporation of transfected HUVEC: 6 fold
Substance: M2 anti-FLAG monoclonal antibody cross-linked with goat anti-mouse IgG (tool reagent)
